Measured values from PMC8794821, “SNX27 suppresses SARS-CoV-2 infection by inhibiting viral lysosome/late endosome entry” (Proceedings of the National Academy of Sciences of the …, 2022).
No end group written: not given here.

Biological target: PDZ domain of SNX27 (residues 40 to 135) (human, UniProt Q96L92 40-135)
Assay: ITC; MicroCal iTC200, 25 °C; ACE2-PBM peptide (125 µM, 5% DMSO) in the syringe, PDZ protein (100 µM, 5% DMSO) in the cell; 20 mM Tris pH 8.0, 150 mM NaCl
Details: both partners purified

B1: ACE2-PBM peptide (-DDVQTSF-COO−) (peptide)
peptide: DDVQTSF-OH
notes: also called human ACE2-PBM; source: synthetic peptide (Beijing SciLight Biotechnology Ltd. Co.)
How did the Kd turn out when B1 was run?
The Kd was 20 µM.
